In this data set the target is OsAP2-39 (OsNUE39) (Oryza sativa) (UniProt Q7XPL6). The data set can be described thus: EMSA. The settings on record: Invitrogen EMSA kit E33075 per manufacturer; 30 ng protein with 0-400 ng DNA; 4-20% TBE native gel, 200 V, 45 min; buffer, salt, pH and temperature not stated.

The text below walks through data of PMC2936520.

Chain of OsAP2-39 (OsNUE39) (Oryza sativa) (Q7XPL6 entry or part of it): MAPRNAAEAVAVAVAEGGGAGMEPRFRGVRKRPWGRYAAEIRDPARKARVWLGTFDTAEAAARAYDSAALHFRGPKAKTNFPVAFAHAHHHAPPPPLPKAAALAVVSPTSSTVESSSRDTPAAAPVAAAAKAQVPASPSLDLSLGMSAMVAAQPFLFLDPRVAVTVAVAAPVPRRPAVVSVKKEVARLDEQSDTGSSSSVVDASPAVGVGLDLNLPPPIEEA

As for “AGTGTTCTGTTCCCCCGGGGAGATAAACCCCCCCTCCTTGGCAACGATACTACCAAGGTTTCTCATCACCAAGATTGTTTGCATGGGACACAGTAACAAACACCGCAGCCGCCGGCGCCGCAGACATT (double strand) [OsNCED-1 promoter GCC-box fragment]”, the binding entry is on record as “binds”.
